Reference: paper PMC4691890

Target: T1, full-length human Apaf-1 (residues 1–1248) (human), O14727
T1 chain: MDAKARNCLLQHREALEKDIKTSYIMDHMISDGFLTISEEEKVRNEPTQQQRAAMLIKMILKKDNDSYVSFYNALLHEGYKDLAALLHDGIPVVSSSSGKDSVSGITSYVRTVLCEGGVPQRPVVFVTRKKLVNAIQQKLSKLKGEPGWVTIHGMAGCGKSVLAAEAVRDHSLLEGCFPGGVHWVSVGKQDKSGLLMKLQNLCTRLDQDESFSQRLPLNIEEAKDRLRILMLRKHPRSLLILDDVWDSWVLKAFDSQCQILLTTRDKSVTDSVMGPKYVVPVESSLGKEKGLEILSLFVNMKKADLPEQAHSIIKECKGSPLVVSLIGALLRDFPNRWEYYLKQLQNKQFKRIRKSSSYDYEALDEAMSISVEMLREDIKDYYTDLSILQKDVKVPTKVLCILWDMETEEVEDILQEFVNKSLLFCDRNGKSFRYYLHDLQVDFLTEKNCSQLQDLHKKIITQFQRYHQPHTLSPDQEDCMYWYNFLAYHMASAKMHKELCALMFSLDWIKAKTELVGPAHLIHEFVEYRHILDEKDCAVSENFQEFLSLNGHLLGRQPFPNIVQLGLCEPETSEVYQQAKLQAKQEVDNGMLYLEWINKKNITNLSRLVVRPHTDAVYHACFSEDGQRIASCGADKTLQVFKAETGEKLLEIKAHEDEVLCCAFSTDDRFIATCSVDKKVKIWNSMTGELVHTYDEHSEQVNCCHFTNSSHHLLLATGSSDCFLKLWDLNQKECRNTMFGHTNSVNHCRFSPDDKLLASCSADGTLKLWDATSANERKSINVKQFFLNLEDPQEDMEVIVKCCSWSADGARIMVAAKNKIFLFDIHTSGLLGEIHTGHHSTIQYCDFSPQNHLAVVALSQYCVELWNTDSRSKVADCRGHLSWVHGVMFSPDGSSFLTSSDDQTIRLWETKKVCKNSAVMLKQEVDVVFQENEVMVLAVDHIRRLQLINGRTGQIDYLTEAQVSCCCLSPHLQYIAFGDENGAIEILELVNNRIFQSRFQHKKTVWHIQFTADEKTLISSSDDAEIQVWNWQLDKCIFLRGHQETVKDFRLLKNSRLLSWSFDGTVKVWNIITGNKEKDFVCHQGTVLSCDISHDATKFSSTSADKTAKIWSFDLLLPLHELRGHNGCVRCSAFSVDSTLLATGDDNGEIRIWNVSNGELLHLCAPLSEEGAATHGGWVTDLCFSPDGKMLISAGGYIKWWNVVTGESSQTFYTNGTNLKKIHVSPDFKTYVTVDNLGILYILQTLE
Assay: cryo-EM structure; apoptosome assembled from full-length Apaf-1 with horse CytC (Sigma) at ~1:2 and 1 mM dATP; ~5 μM on grids; 3.8 Å overall, ~5 Å in the spokes after local masking
Settings: remark: other sources report otherwise

stoichiometry N: 7
B1: full-length human Apaf-1 (residues 1–1248), O14727 1-1248 (natural protein)
chain: MDAKARNCLLQHREALEKDIKTSYIMDHMISDGFLTISEEEKVRNEPTQQQRAAMLIKMILKKDNDSYVSFYNALLHEGYKDLAALLHDGIPVVSSSSGKDSVSGITSYVRTVLCEGGVPQRPVVFVTRKKLVNAIQQKLSKLKGEPGWVTIHGMAGCGKSVLAAEAVRDHSLLEGCFPGGVHWVSVGKQDKSGLLMKLQNLCTRLDQDESFSQRLPLNIEEAKDRLRILMLRKHPRSLLILDDVWDSWVLKAFDSQCQILLTTRDKSVTDSVMGPKYVVPVESSLGKEKGLEILSLFVNMKKADLPEQAHSIIKECKGSPLVVSLIGALLRDFPNRWEYYLKQLQNKQFKRIRKSSSYDYEALDEAMSISVEMLREDIKDYYTDLSILQKDVKVPTKVLCILWDMETEEVEDILQEFVNKSLLFCDRNGKSFRYYLHDLQVDFLTEKNCSQLQDLHKKIITQFQRYHQPHTLSPDQEDCMYWYNFLAYHMASAKMHKELCALMFSLDWIKAKTELVGPAHLIHEFVEYRHILDEKDCAVSENFQEFLSLNGHLLGRQPFPNIVQLGLCEPETSEVYQQAKLQAKQEVDNGMLYLEWINKKNITNLSRLVVRPHTDAVYHACFSEDGQRIASCGADKTLQVFKAETGEKLLEIKAHEDEVLCCAFSTDDRFIATCSVDKKVKIWNSMTGELVHTYDEHSEQVNCCHFTNSSHHLLLATGSSDCFLKLWDLNQKECRNTMFGHTNSVNHCRFSPDDKLLASCSADGTLKLWDATSANERKSINVKQFFLNLEDPQEDMEVIVKCCSWSADGARIMVAAKNKIFLFDIHTSGLLGEIHTGHHSTIQYCDFSPQNHLAVVALSQYCVELWNTDSRSKVADCRGHLSWVHGVMFSPDGSSFLTSSDDQTIRLWETKKVCKNSAVMLKQEVDVVFQENEVMVLAVDHIRRLQLINGRTGQIDYLTEAQVSCCCLSPHLQYIAFGDENGAIEILELVNNRIFQSRFQHKKTVWHIQFTADEKTLISSSDDAEIQVWNWQLDKCIFLRGHQETVKDFRLLKNSRLLSWSFDGTVKVWNIITGNKEKDFVCHQGTVLSCDISHDATKFSSTSADKTAKIWSFDLLLPLHELRGHNGCVRCSAFSVDSTLLATGDDNGEIRIWNVSNGELLHLCAPLSEEGAATHGGWVTDLCFSPDGKMLISAGGYIKWWNVVTGESSQTFYTNGTNLKKIHVSPDFKTYVTVDNLGILYILQTLE
